Results taken from the DeepSol protein solubility set.

Assay: soluble on expression in E. coli; label from the status in PepcDB or PDB records
With “MGHHHHHHGGHMSLNSTSSPTIAVTAATGKLGQLVVSSLLERGVPADHIVAIVRNPAKAQGLFAPGVQIRQADYNSPEGWDRALAGVQRLLLISSSDLNDRADQHRTVIEAASAAGVELLAYTSLLKADTARMSLAADHQATEKLLTESGVPFVLLRNGWYLENYDLAQALQTGSVLGAAGTGRISAASRKDLAEAAAAALTRDGQAGKVYELAGDEAFSLSELAAELSKQSGKDVQYRNFAPEDYQRTLEGFGLPAPVAQMLVSSDEGVARGELELPNSDLRELIGRPSTSLKEAVASQLAEGGS” the “soluble on expression in E. coli” value was “soluble”.
In the case of “MGHHHHHHSHDNLSVPLMEEDLDGSSGVLFPFYDADTSMLYVVGKGDGNIRYYEVSADKPHLSYLTEYRSYNPQKGIGVMPKRGLDVSSCEIFRFYKLITTKSLIEPISMIVPRRSESYQEDIYPPTAGAQPSLTAQEWLSGMNRDPILVSLRPGSELLRPHPLPAERPIFNSMAPASPRLLNQTEKLAAEDGWRSS”, the “soluble on expression in E. coli” value is reported as “not soluble”.
With “MGHHHHHHSHDTISHQLEWRSLKSQETTGAGEDVEKQEQLLHCWWDCKLVQPLRKSVWQFLRNLELEIPFDPAIPLLGRYPKDYKSCCYKDTCTRMFIAALFTIAKTWNQPKCPTTIDWIKKMWHIYTMEYYAAIKNDEFMSFVGTWMKLETIILSKLSQGQ” the “soluble on expression in E. coli” value was “not soluble”.
For “MGHHHHHHSHFRNCILGLAVGDALGMPVEGLSIENIRQLYGEVRDFLPSPYGDLNAGEWTDDTEQMVVLAESILETVYFDPENFAERLKRWFLETNSRRIGPSSTKAISNLMRGVHWTRAGVFSDTCGAAMRVAPIGLVYHFSLNLVERYAEISARVTHTGTAAIGGAVAVAVAIACNVLDFSDEEMLEEVLRRVEAYDNLLAEKIRYANEISDRDVEYAVEKLGNSISSLDVVPMAFYSYFAGKDFEESLIKAVNAGGDADSIAAICGAIKGAKGFAIPERWLEGLKDREFLEELATK”, the “soluble on expression in E. coli” value was “not soluble”.
With “MGHHHHHHSHGVSAAVTSMSVPTPIYQTSSGQYIAIAPNGALQLASPGTDGVQGLQTLTMTNSGSTQQGTTILQYAQTSDGQQILVPSNQVVVQTASGDMQTYQIRTTPSATSLPQTVVMTSPVTLTSQTTKTDDPQLKREIRLMKNREAARECRRKKKEYVKCLENRVAVLENQNKTLIEELKTLKDLYSNKS” the “soluble on expression in E. coli” value was “not soluble”.
In the case of “MGHHHHHHSHLTTKEDVFDAIVTLKVRGAPAIGITAAFGLALAAKDIETDNVTEFRRRLEDIKQYLNSSRPTAINLSWALERLSHSVENAISVNEAKTNLVHEAIQIQVEDEETCRLIGQNALQLFKKGDRIMTICNAGSIATSRYGTALAPFYLAKQKDLGLHIYACETRPVLQGSRLTAWELMQGGIDVTLITDSMAAHTMKEKQISAVIVGADRIAKNGDTANKIGTYGLAILANAFDIPFFVAAPLSTFDTKVKCGADIPIEERDPEEVRQISGVRTAPSNVPVFNPAFDITPHDLISGIITEKGIMTGNY”, the “soluble on expression in E. coli” value is reported as “not soluble”.
With “MGHHHHHHSHMAGAAEDARALFRAGVCAALEAWPALQIAVENGFGGVHSQEKAKWLGGAVEDYFMRNADLELDEVEDFLGELLTNEFDTVVEDGSLPQVSQQLQTMFHHFQRGDGAALREMASCITQRKCKVTATALKTARETDEDEDDVDSVEEMEVTATNDGAATDGVCPQPEPSDPDAQTIKEEDIVEDGWTIVRRKK” the “soluble on expression in E. coli” value was “soluble”.
In the case of “MGHHHHHHSHMANCEGTDGDGTGCNGWFFVQAIVDKQTGDTVSEDEDENATDTGSDMVDFIDDATDICIQAERETAQVLLNMQQAQRDAQTVRALKRKYTDSIESSPLAKSPLQELSIWKWKLTRR”, the “soluble on expression in E. coli” value is reported as “not soluble”.
For “MGHHHHHHSHMAPGGLFLPYHSLPQPDFLASCPTRHLKLCQCPGILAENPHQFSPTFPPGKGSCQHGALPGQVSLKEAAHTEMSLSGQDLFPSPAHPPLQPFWLPFSLCLSTPFLVADNELRLPKGQICPLHVFVLANRVVLKLCANSVWEHSKGIT”, the “soluble on expression in E. coli” value was “not soluble”.
For “MGHHHHHHSHMASPSKAVIVPGNGGGDVTTHGWYGWVKKELEKIPGFQCLAKNMPDPITARESIWLPFMETELHCDEKTIIIGHSSGAIAAMRYAETHRVYAIVLVSAYTSDLGDENERASGYFTRPWQWEKIKANCPYIVQFGSTDDPFLPWKEQQEVADRLETKLHKFTDCGHFQNTEFHELITVVKSLLKVPA”, the “soluble on expression in E. coli” value was “not soluble”.
With “MGHHHHHHSHMCGKFTLFSEFDDIIEQFNIDQFLPEGEYHPSYNVAPSQNILTIINDGSNNRLGKLRWGLIPPCAKDEKIGYKMINARAETLAEKPSFRKPLGSKRCIIPADSFYEWKRLDPKTKIPMRIKLKSSNLFAFAGLYEKWNTLEGNLLYTCTIITIKPSELMEDIHDRMPVILTDENKKEWLNPKNTDPDYLQSLLLPYDADDMEAYQVSSLVNSPELIESH” the “soluble on expression in E. coli” value was “soluble”.
For “MGHHHHHHSHMDTPENVLQMLEAHMQSYKGNDPLGEWERYIQWVEENFPENKEYLITLLEHLMKEFLDKKKYHNDPRFISYCLKFAEYNSDLHQFFEFLYNHGIGTLSSPLYIAWAGHLEAQGELQHASAVLQRGIQNQAEPREFLQQQYRLFQTRLTETHLPAQAR”, the “soluble on expression in E. coli” value was “not soluble”.
For “MGHHHHHHSHMEFRSVAERICGDIVLSENSGEALRKWRSIFNASQSDLARKLGISPSVISDYESGRRKPGTAFLKKFVCALIELDGERGYQVLSKYRYFLESDHKAVLDIAEYQKTAEPSEFCEVIEGKMLTHFDKAIHGHTVIDSINAILSLNAFDFYRLYGLTSERALIFTRVSTGRSPMVAVRVSNLKPSAVVLHGLEAERVDEMAKKIAEIERIPLVVTEIAIGEIVKRLRRKFA”, the “soluble on expression in E. coli” value was “not soluble”.
With “MGHHHHHHSHMEPEAFEICPYDPHHRIPLSRFQYHLASCRRKNPKKAKKMATCKYNACHVVPIKNLEEHEAVCVNRSAVEEEDTENPLKVSPPSSEQNDDTQQVSPCLPSPDIWNVDGANCQHVFVLKTFFPQKVVCENDTKESARETSPQKILRPGQ” the “soluble on expression in E. coli” value was “not soluble”.
In the case of “MGHHHHHHSHMEQFEVIKQQKEIIEHGIELFNKKPKRGIQFLQEQGMLGTSVEDIAQFLHQEERLDSTQVGDFLGDSARFNKEVMYAYVDQLDFCEKEFVSALRTFLEGFRLPGEAQKIDRLMEKFAARYIECNQGQTLFASADTAYVLAYSIIMLTTDLHSPQVKNKMTKEQYIKMNRGINDSKDLPEEYLSSIYEEIEGKKIAMKETKELT”, the “soluble on expression in E. coli” value is reported as “soluble”.
With “MGHHHHHHSHMFLQYYLNEQGDRVYTLKKFDPMGQQTCSAHPARFSPDDKYSRHRITIKKRFKVLMTQQPRPVL” the “soluble on expression in E. coli” value was “not soluble”.
In the case of “MGHHHHHHSHMGFYLGITALKSIGNNKNNNIDNENNHQAKILTFPVSFTCRTFLPARGDILQGTVKKVLWNGAFIRSGPLRYAYLSLLKMPHYHYVHSPLSEDEKPHFQKDDLSKIAVGVVVRFQVLAVRFKERPHKRRNDYYVLATLEGNGSFGP”, the “soluble on expression in E. coli” value is reported as “soluble”.
With “MGHHHHHHSHMGRCYNNIVIDASIEAVWQQIGNFHDMSWAKGVITSLVKVGPASGTEVGAKRILNDAIHETLVSLDSSNYTFTYSIDDGPDAIAKSAVDNYLGMVNLSESSTGVLVEWSSSFTSDNEKAVTEFCDP” the “soluble on expression in E. coli” value was “not soluble”.
In the case of “MGHHHHHHSHMGVAGTPGLPESPDKSPVGRKKSKGLATRLSRRRVSCRELGRPDCDGWLLLRKAPGGFMGPRWRRRWFVLKGHTLYWYRQPQDEKAEGLINVSNYSLESGHDQKKKYVFQLTHDVYKPFIFAADTLTDLSMWVRHLITCISKYQSP”, the “soluble on expression in E. coli” value is reported as “soluble”.
In the case of “MGHHHHHHSHMKALSPVRGCYEAVCCLSERSLAIARGRGKGPAAEEPLSLLDDMNHCYSRLRELVPGVPRGTQLSQVEILQRVIDYILDLQVVLAEPAPGPPDGPHLPIQTAELAPELVISNDKRSFCH”, the “soluble on expression in E. coli” value is reported as “not soluble”.
For “MGHHHHHHSHMKESAHLAISWLRSNAKKYQLTNAFGSFDLLDNTDIHLHFPAGAVTKDGPSAGVTIVTCLASLFSGRLVRSDVAMTGEITLRGLVLPVGGIKDKVLAAHRAGLKQVIIPRRNEKDLEGIPGNVRQDLSFVTASCLDEVLNAAFDGGFTVKTRPGLLNSKL”, the “soluble on expression in E. coli” value was “not soluble”.
In the case of “MGHHHHHHSHMKIFKFTPENNLFYGYILEDMKTGFNILREIMVEGYRPSIARLYDAEDGTQHFTHFADGKCVLIFMAEGNPRIAKVTGEGIAEIVARYPQCQRVDSKLIETWFNNLNWGPDKVAAERVQILKTGNMGFTTEVSGCWSCIHEIYESVINRIRTEFPHADDITMLGGHSSHSYQNGTNMYFVYDYNVVDCKPEEEIDKYHNPLNKIICEETIRLGGSMVHHHGIGKHRVHWSKLEHGSAWALLEGLKKQFDPNGIMNTGTIYPIEK”, the “soluble on expression in E. coli” value is reported as “not soluble”.
